According to PMC11215725, “A Potent Sybody Selectively Inhibits α-Synuclein Amyloid Formation by Binding to the P1 Region” (Journal of Medicinal Chemistry, 2024):
* marks the point of attachment. Biotin = O=C1N[C@H]2[C@H](CS[C@H]2CCCCC(=O)*)N1

Columns and labels:
[1] = biological target: wild-type α-synuclein, monomeric (UniProt P37840); assay: ELISA; indirect ELISA: 30 μM WT or ΔP1 α-syn monomers coated on MaxiSorp plate, 1-10 μM αSP1 for 1 h at room temperature, detection by anti-six-His HRP; TBS; details: both partners purified
[2] = biological target: WT α-syn stabilized oligomers (Homo sapiens (Human)., UniProt P37840); assay: ELISA; 80 pmol αSP1 immobilised on the plate, 160 pmol of each α-syn species added, detection by anti-α-syn-HRP; blocking with 5% goat serum in TBS; details: both partners purified
[3] = biological target: WT α-syn samples collected after aggregation for 48 h (Homo sapiens (Human)., UniProt P37840); assay: ELISA; indirect ELISA: aliquots of a 20 μM WT α-syn aggregation taken at 0, 5, 10, 24 and 48 h coated on the plate, 2 μM αSP1, detection by anti-six-His HRP; details: both partners purified
[4] = biological target: T1, synthetic peptide with the sequence of P1 from α-syn (Homo sapiens (Human)., SMILES CC(C)C[C@H](NC(=O)[C@@H](NC(=O)CNC(=O)CCCC[C@@H]1SC[C@@H]2NC(=O)N[C@@H]21)C(C)C)C(=O)N[C@@H](Cc1ccc(O)cc1)C(=O)N[C@H](C(=O)NCC(=O)N[C@@H](CO)C(N)=O)C(C)C); assay: ELISA; screen in 96 wells: protein A coated, anti-c-Myc antibody, sybody from diluted periplasmic extract captured, then 500 nM biotinylated peptide, streptavidin-HRP; TBS with 0.5% BSA; OD 650 nm; details: one partner purified
T1 construct: P1 region of α-synuclein, residues 36-42; also called P1 peptide; peptide P1; source: synthetic peptide, bought: GenScript
T1 chain: Biotin-GVLYVGS-NH2

Measured: binding result

B1: sybody αSP1 (VHH)
VHH: QVQLVESGGGLVQAGGSLRLSCAASGFPVRHQWMEWYRQAPGKEREWVAAISSFGQWTKYADSVKGRFTISRDNAKNTVYLQMNSLKPEDTAVYYCVVEVGYEYYGQGTQVTVSA
notes: His35 stands in CDR1; Synthetic single-domain antibody; results: NTA-Alexa Fluor 647; this is not a covalent change of a residue; also called aSP1; source: in periplasmic extract for the screen; purified (Ni-NTA, SEC) for all other experiments; not shown: Myc, C-terminal, kept; His tag, C-terminal, kept
binds: all assays above
